According to patent publication US10428327B2, “Compositions and methods for enhancing homologous recombination” (LIFE TECHNOLOGIES CORPORATION, priority 2016, dated 2019):
Oligonucleotides are written 5' to 3', each unit as a sugar letter and its base; * is a phosphorothioate linkage, no mark a phosphodiester; rarer units and linkages stand in square brackets, end groups in braces. Plain capitals give the bases only. d = 2'-deoxy (DNA)

Experiments:
DNA ligase IV = target: T1, DNA ligase IV (Homo sapiens, UniProt P49917); conditions: cited from earlier work
T1 sequence (P49917 1-911): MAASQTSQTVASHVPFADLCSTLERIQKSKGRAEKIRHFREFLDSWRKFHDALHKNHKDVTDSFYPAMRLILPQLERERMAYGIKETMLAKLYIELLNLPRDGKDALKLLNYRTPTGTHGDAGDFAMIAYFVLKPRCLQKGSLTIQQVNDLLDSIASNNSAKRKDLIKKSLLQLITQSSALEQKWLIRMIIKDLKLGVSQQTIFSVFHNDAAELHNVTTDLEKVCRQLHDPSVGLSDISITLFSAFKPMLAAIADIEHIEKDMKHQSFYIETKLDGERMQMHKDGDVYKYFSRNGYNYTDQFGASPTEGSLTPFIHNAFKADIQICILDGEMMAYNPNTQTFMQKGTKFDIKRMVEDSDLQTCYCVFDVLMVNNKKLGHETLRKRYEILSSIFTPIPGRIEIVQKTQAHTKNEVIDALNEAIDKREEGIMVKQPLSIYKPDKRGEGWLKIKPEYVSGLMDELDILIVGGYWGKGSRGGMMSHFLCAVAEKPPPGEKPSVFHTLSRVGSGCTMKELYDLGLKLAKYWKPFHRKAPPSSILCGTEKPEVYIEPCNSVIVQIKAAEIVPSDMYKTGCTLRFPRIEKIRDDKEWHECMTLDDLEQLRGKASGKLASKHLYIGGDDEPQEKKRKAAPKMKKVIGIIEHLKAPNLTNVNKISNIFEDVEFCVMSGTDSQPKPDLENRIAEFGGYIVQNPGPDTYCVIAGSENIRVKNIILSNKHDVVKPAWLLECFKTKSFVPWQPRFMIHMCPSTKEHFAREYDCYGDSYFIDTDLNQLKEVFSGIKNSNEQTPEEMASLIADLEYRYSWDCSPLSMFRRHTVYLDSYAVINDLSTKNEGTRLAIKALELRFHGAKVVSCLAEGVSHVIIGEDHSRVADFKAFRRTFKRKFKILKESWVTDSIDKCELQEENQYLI

hESCs = conditions: synchronization at M phase prior to nucleofection; cited from earlier work
HEK293T cells = conditions: synchronization at M phase prior to nucleofection; cited from earlier work
rabbit embryos = conditions: in vitro and in vivo; cited from earlier work
[1] = system: eBFP locus in HEK293 cells expressing eBFP; experiment: EcoRI restriction digestion of PCR-amplified eBFP locus (FLAG tag/EcoRI insertion); format: cell-based; conditions: 48 hours
[2] = system: eBFP locus in HEK293 cells expressing eBFP; experiment: Genomic cleavage and detection assay at eBFP locus after Cas9 RNP and FLAG/EcoRI donor; format: cell-based; conditions: sequential delivery, 48 hours post transfection
Source text: FIG. 11. Insertion of a FLAG tag along with an EcoRI site using dsDNA donor with single-stranded overhangs. (A) Various donor DNA molecules containing a 30-base FLAG tag along with an EcoRI site were designed and synthesized, including single-stranded DNA donor (ssDNA), blunt-end dsDNA donor (blunt), dsDNA donor with 5′ overhang (5′), dsDNA donor with 3′ overhang (3′). The length of overhangs varied from 6 nucleotides (6), 15 nucleotides (15) to 30 nucleotides (30). The 3′ and 5′ ends of the oligonucleotides harbored two consecutive phosphorothioate-modified bases (Table 4). The short dsDNA donors with and without overhangs were prepared by annealing two short DNA oligonucleotides. […] At 48 hours post transfection, the eBFP locus was PCR-amplified. The resulting PCR fragments were analyzed by the genomic cleavage and detection assays to determine the percentage of Indel or subjected to restriction digestion with EcoRI to determine the percentage of digestion. (B) Length of 3′ overhang. […] Alternatively, a dsDNA donor with 30-base 3′ overhang but without phosphorothioate modification (30-3′n) was used. The percentage of digestion with EcoRI was determined at 48 hours post transfection. (C) Dose effect. […] The eBFP loci were PCR-amplified. The resulting PCR fragments were analyzed by EcoRI digest. (D) Sequencing verification. The PCR fragments were cloned into E. coli and 192 clones were randomly picked for sequencing. The relative percentage of wild type (wt), NHEJ, and HDR clones derived from either ssDNA donor (ssDNA) or dsDNA with 3′ overhangs (3′ overhang) was plotted. The white rectangles represented the population of clones that contained the insert but with a point mutation. Examples of edited clones were shown in (E) (not representing the actual percentages of NHEJ and HDR). The underlined sequences represented the FLAG tag along with an RI site. FIG. 11 discloses SEQ ID NOs: 15-24, respectively, from top to bottom.
The genomic cleavage efficiency was measured by GENEART® Genomic Cleavage Detection kit according to manufacturer's instructions. The primer sequences for PCR amplification of each genomic locus are described in Table 4. Cells were analyzed at 48 to 72 hours post transfection. The cleavage efficiencies were calculated based on the relative agarose gel band intensity, which were quantified using an […]® gel documentation system running […]®, Version 3.4.0.0. ProteinSimple (San Jose, Calif., USA).
To extend this concept, we hypothesized that a dsDNA donor harboring single-stranded overhangs would facilitate HDR to higher levels than with blunt ends. To test this hypothesis, we designed and generated a series of donor molecules with either blunt end, 5′ end protrusion or 3′ end protrusion by annealing two small single-stranded oligonucleotides. A single-stranded DNA donor was used as a control. The 5′ and 3′ ends of oligonucleotides were protected with two consecutive phosphorothioate-modified bases (Table 3). For proof of concept, we inserted a 30 nucleotide FLAG epitope tag along with an EcoRI site into the BFP gene stably expressed in HEK293 cells. The gRNA was designed to target the top DNA strand. The length of single-stranded overhangs varied from 6 nucleotides to 30 nucleotides. The oligonucleotides were denatured and re-annealed prior to transfection forming the structures described in FIG. 11A. […] Co-delivery of Cas9 RNPs and donor DNA gave lower HDR efficiencies. At 48 hours post transfection, the genomic locus was PCR-amplified and the editing efficiencies were determined using a GCD assay. […] When the PCR fragments were subjected to restriction digestion with EcoRI to identify properly inserted constructs, only the donor DNA molecules containing 30-base single-stranded overhangs at the 3′ ends produced the expected digested fragments (30-3′ in FIG. 11, panel A). […]

[3] = FIG. 11A, donor configurations, sequential delivery

Molecule: Scr7
- increase in HDR efficiency (DNA ligase IV): up to 19 fold

Molecule: COC(=O)Nc1nc2ccc(C(=O)c3cccs3)cc2[nH]1 [nocodazole]
- HDR (hESCs): ≤ 1.6%
- HDR (HEK293T cells): up to 38%

Molecule: O=C(Nc1ccc(Br)cc1)c1ccc(Br)c(S(=O)(=O)NCc2ccccc2)c1 [RS-1]
- increased knock-in efficiency (rabbit embryos): 2-5 fold

B1: 15-3′: dsDNA donor with 15 nucleotide 3′ overhangs, annealed SEQ ID 83 and 84 (nucleic acid)
chain 1: dG*dA*dCdTdAdCdAdAdAdGdAdCdGdAdTdGdAdCdGdAdCdAdAdGdAdAdTdTdCdTdTdAdCdGdGdCdGdTdGdCdAdGdT*dG*dC
chain 2: dA*dA*dGdAdAdTdTdCdTdTdGdTdCdGdTdCdAdTdCdGdTdCdTdTdTdGdTdAdGdTdCdGdGdTdCdAdGdGdGdTdGdGdTdC*dA*dC
modifications: further chemistry not fully specified
- Avg (% digestion) [1, 3]: 0.50%
- Avg (% digestion) ([1]; FIG. 11B, length of 3′ overhang): 0.8%
- Avg (% Indels) [2]: 81.00%

B2: 30-5′: dsDNA donor with 30 nucleotide 5′ overhangs, annealed SEQ ID 85 and 86 (nucleic acid)
chain 1: dG*dT*dGdCdCdCdTdGdGdCdCdCdAdCdCdCdTdCdGdTdGdAdCdCdAdCdCdCdTdGdAdCdCdGdAdCdTdAdCdAdAdAdGdAdCdGdAdTdGdAdCdGdAdCdAdAdGdAdAdTdTdC*dT*dT
chain 2: dG*dT*dGdGdTdCdGdGdGdGdTdAdGdCdGdGdCdTdGdAdAdGdCdAdCdTdGdCdAdCdGdCdCdGdTdAdAdGdAdAdTdTdCdTdTdGdTdCdGdTdCdAdTdCdGdTdCdTdTdTdGdTdAdG*dT*dC
modifications: Two annealed DNA oligonucleotides with 5' overhangs, further chemistry not fully specified
- Avg (% digestion) [1, 3]: 1.00%
- Avg (% Indels) [2]: 80.00%
